This assay deals with protein having a molecular weight of about 44,000 which constitutes the membrane-bound alcohol dehydrogenase complex of Acetobacter altoacetigenes MH-24 (cytochrome c) (Acetobacter altoacetigenes MH-24).

Turning to “protein having a molecular weight of about 72,000 which constitutes the membrane-bound alcohol dehydrogenase complex of Acetobacter altoacetigenes MH-24 (enzyme)”, the ADH enzyme activity (U/mg protein) in cell homogenate of transformed ADH-deleted mutant 10-80 was 0.4 U/mg protein.

For the origin of these results see patent US5344777.
